From patent US20200165325A1

How the values were obtained:
[1] = biological target: Env (gp120) of HIV-1 strain ZM249M.PL1 (HIV-1)
[2] = biological target: Env (gp120) of HIV-1 strain 3817.v2.c59 (HIV-1)
[3] = biological target: Env (gp120) of HIV-1 strain 6480.v4.c25 (HIV-1)
[4] = biological target: Env (gp120) of HIV-1 strain Q461.e2 (HIV-1)
[5] = biological target: Env (gp120) of HIV-1 strain C1080.c03 (HIV-1)
[6] = biological target: Env (gp120) of HIV-1 strain AC10.0.29 (HIV-1)
[7] = biological target: Env (gp120) of HIV-1 strain 928-28 (HIV-1)
[8] = biological target: Env (gp120) of HIV-1 strain CNE21 (HIV-1)
[9] = biological target: Env (gp120) of HIV-1 strain CNE17 (HIV-1)
[10] = biological target: Env (gp120) of HIV-1 strain R1166.c01 (HIV-1)
[11] = biological target: Env (gp120) of HIV-1 strain Ce703010054_2A2 (HIV-1)
[12] = biological target: Env (gp120) of HIV-1 strain T278-50 (HIV-1)
[13] = biological target: Env (gp120) of HIV-1 strain QH0692.42 (HIV-1)
[14] = biological target: Env (gp120) of HIV-1 strain 3415.v1.c1 (HIV-1)
[15] = biological target: Env (gp120) of HIV-1 strain Ce1176_A3 (HIV-1)
[16] = biological target: Env (gp120) of HIV-1 strain 1054_07_TC4_1499 (HIV-1)
[17] = biological target: Env (gp120) of HIV-1 strain ZM109F.PB4 (HIV-1)
[18] = biological target: Env (gp120) of HIV-1 strain RHPA4259.7 (HIV-1)
[19] = biological target: Env (gp120) of HIV-1 strain 620345.c01 (HIV-1)
[20] = biological target: Env (gp120) of HIV-1 strain CNE58 (HIV-1)
[21] = biological target: Env (gp120) of HIV-1 strain 89-F1_2_25 (HIV-1)
[22] = biological target: Env (gp120) of HIV-1 strain CNE30 (HIV-1)
[23] = biological target: Env (gp120) of HIV-1 strain R2184.c04 (HIV-1)
[24] = biological target: Env (gp120) of HIV-1 strain THRO4156.18 (HIV-1)
[25] = biological target: Env (gp120) of HIV-1 strain ZM247v1(Rev-) (HIV-1)
[26] = biological target: Env (gp120) of HIV-1 strain 3301.v1.c24 (HIV-1)
[27] = biological target: Env (gp120) of HIV-1 strain CAAN5342.A2 (HIV-1)
[28] = biological target: Env (gp120) of HIV-1 strain 1056_10_TA11_1826 (HIV-1)
[29] = biological target: Env (gp120) of HIV-1 strain T251-18 (HIV-1)
[30] = biological target: Env (gp120) of HIV-1 strain T257-31 (HIV-1)
[31] = biological target: Env (gp120) of HIV-1 strain 6545.v4.c1 (HIV-1)
[32] = biological target: Env (gp120) of HIV-1 strain TRO.11 (HIV-1)
[33] = biological target: Env (gp120) of HIV-1 strain Du172.17 (HIV-1)
[34] = biological target: Env (gp120) of HIV-1 strain 703357.C02 (HIV-1)
[35] = biological target: Env (gp120) of HIV-1 strain Du422.1 (HIV-1)
[36] = biological target: Env (gp120) of HIV-1 strain 6811.v7.c18 (HIV-1)
[37] = biological target: Env (gp120) of HIV-1 strain CNE53 (HIV-1)
[38] = biological target: Env (gp120) of HIV-1 strain 6540.v4.c1 (HIV-1)
[39] = biological target: Env (gp120) of HIV-1 strain 62357_14_D3_4589 (HIV-1)
[40] = biological target: Env (gp120) of HIV-1 strain WITO4160.33 (HIV-1)
[41] = biological target: Env (gp120) of HIV-1 strain T250-4 (HIV-1)
[42] = biological target: Env (gp120) of HIV-1 strain Du156.12 (HIV-1)
[43] = biological target: Env (gp120) of HIV-1 strain Ce0393_C3 (HIV-1)
[44] = biological target: Env (gp120) of HIV-1 strain 0815.v3.c3 (HIV-1)
[45] = biological target: Env (gp120) of HIV-1 strain REJO4541.67 (HIV-1)
[46] = biological target: Env (gp120) of HIV-1 strain 3103.v3.c10 (HIV-1)
[47] = biological target: Env (gp120) of HIV-1 strain Q842.d12 (HIV-1)
[48] = biological target: Env (gp120) of HIV-1 strain Ce0682_E4 (HIV-1)
[49] = biological target: Env (gp120) of HIV-1 strain Q259.d2.17 (HIV-1)
[50] = biological target: Env (gp120) of HIV-1 strain ZM197M.PB7 (HIV-1)

NIH45-46 IgG (antibody)
neutralization IC50 [1]: 0.017 µg/mL | neutralization IC50 [2]: > 50 µg/mL | neutralization IC50 [3]: 0.032 µg/mL | neutralization IC50 [4]: 0.076 µg/mL | neutralization IC50 [5]: 2.48 µg/mL | neutralization IC50 [6]: 0.56 µg/mL | neutralization IC50 [7]: 0.23 µg/mL | neutralization IC50 [8]: 6.01 µg/mL | neutralization IC50 [9]: 0.261 µg/mL | neutralization IC50 [10]: 0.31 µg/mL | neutralization IC50 [11]: 0.159 µg/mL | neutralization IC50 [12]: > 50 µg/mL | neutralization IC50 [13]: 0.72 µg/mL | neutralization IC50 [14]: 0.022 µg/mL | neutralization IC50 [15]: 0.93 µg/mL | neutralization IC50 [16]: 0.113 µg/mL | neutralization IC50 [17]: 0.095 µg/mL | neutralization IC50 [18]: 0.017 µg/mL | neutralization IC50 [19]: > 50 µg/mL | neutralization IC50 [20]: 0.43 µg/mL | neutralization IC50 [21]: > 50 µg/mL | neutralization IC50 [22]: 0.309 µg/mL | neutralization IC50 [23]: 0.034 µg/mL | neutralization IC50 [24]: 1.91 µg/mL | neutralization IC50 [25]: 2.94 µg/mL | neutralization IC50 [26]: 0.009 µg/mL | neutralization IC50 [27]: 0.15 µg/mL | neutralization IC50 [28]: 0.094 µg/mL | neutralization IC50 [29]: 1.35 µg/mL | neutralization IC50 [30]: 0.49 µg/mL | neutralization IC50 [31]: > 50 µg/mL | neutralization IC50 [32]: 1.61 µg/mL | neutralization IC50 [33]: > 50 µg/mL | neutralization IC50 [34]: 19.2 µg/mL | neutralization IC50 [35]: > 50 µg/mL | neutralization IC50 [36]: 0.035 µg/mL | neutralization IC50 [37]: 0.008 µg/mL | neutralization IC50 [38]: > 50 µg/mL | neutralization IC50 [39]: 0.06 µg/mL | neutralization IC50 [40]: 0.06 µg/mL | neutralization IC50 [41]: > 50 µg/mL | neutralization IC50 [42]: 0.02 µg/mL | neutralization IC50 [43]: 0.334 µg/mL | neutralization IC50 [44]: 0.014 µg/mL | neutralization IC50 [45]: 0.014 µg/mL | neutralization IC50 [46]: 1.77 µg/mL | neutralization IC50 [47]: 0.031 µg/mL | neutralization IC50 [48]: 0.054 µg/mL | neutralization IC50 [49]: 0.043 µg/mL | neutralization IC50 [50]: 0.15 µg/mL

NIH45-46^G54F IgG (antibody)
neutralization IC50 [1]: 0.004 µg/mL | neutralization IC50 [2]: > 50 µg/mL | neutralization IC50 [3]: 0.014 µg/mL | neutralization IC50 [4]: 0.03 µg/mL | neutralization IC50 [5]: 0.36 µg/mL | neutralization IC50 [6]: 0.24 µg/mL | neutralization IC50 [7]: 0.11 µg/mL | neutralization IC50 [8]: 0.12 µg/mL | neutralization IC50 [9]: 0.075 µg/mL | neutralization IC50 [10]: 0.4 µg/mL | neutralization IC50 [11]: 0.02 µg/mL | neutralization IC50 [12]: > 50 µg/mL | neutralization IC50 [13]: 0.56 µg/mL | neutralization IC50 [14]: < 0.001 µg/mL | neutralization IC50 [15]: 0.24 µg/mL | neutralization IC50 [16]: 0.076 µg/mL | neutralization IC50 [17]: 0.022 µg/mL | neutralization IC50 [18]: 0.005 µg/mL | neutralization IC50 [19]: > 50 µg/mL | neutralization IC50 [20]: 0.04 µg/mL | neutralization IC50 [21]: > 50 µg/mL | neutralization IC50 [22]: 0.1 µg/mL | neutralization IC50 [23]: 0.015 µg/mL | neutralization IC50 [24]: 0.89 µg/mL | neutralization IC50 [25]: 0.28 µg/mL | neutralization IC50 [26]: 0.001 µg/mL | neutralization IC50 [27]: 0.1 µg/mL | neutralization IC50 [28]: 0.064 µg/mL | neutralization IC50 [29]: 0.41 µg/mL | neutralization IC50 [30]: 0.17 µg/mL | neutralization IC50 [31]: > 50 µg/mL | neutralization IC50 [32]: 0.11 µg/mL | neutralization IC50 [33]: > 50 µg/mL | neutralization IC50 [34]: 7.91 µg/mL | neutralization IC50 [35]: > 50 µg/mL | neutralization IC50 [36]: 0.017 µg/mL | neutralization IC50 [37]: 0.005 µg/mL | neutralization IC50 [38]: > 50 µg/mL | neutralization IC50 [39]: 0.04 µg/mL | neutralization IC50 [40]: 0.02 µg/mL | neutralization IC50 [41]: > 50 µg/mL | neutralization IC50 [42]: < 0.001 µg/mL | neutralization IC50 [43]: 0.04 µg/mL | neutralization IC50 [44]: < 0.001 µg/mL | neutralization IC50 [45]: 0.007 µg/mL | neutralization IC50 [46]: 0.37 µg/mL | neutralization IC50 [47]: 0.011 µg/mL | neutralization IC50 [48]: 0.011 µg/mL | neutralization IC50 [49]: 0.009 µg/mL | neutralization IC50 [50]: 0.09 µg/mL
